In PMC6586363 one finds stoichiometry N data, which are given here for one substance.

In the test the target is recombinant human PKM2, wild type (human) (UniProt P14618). The experiment in a line: native gel or EMSA; blue native gel electrophoresis of recombinant PKM2 (WT or mutant) or PKM1, alone or with FBP and/or scFv 5; resolves dimer and tetramer forms. Background: Mobility shift assays separate free from complexed probe on a gel.

recombinant human PKM2, wild type, P14618 1-531 (enzyme; other documents disagree on this pair), sequence (P14618 whole entry): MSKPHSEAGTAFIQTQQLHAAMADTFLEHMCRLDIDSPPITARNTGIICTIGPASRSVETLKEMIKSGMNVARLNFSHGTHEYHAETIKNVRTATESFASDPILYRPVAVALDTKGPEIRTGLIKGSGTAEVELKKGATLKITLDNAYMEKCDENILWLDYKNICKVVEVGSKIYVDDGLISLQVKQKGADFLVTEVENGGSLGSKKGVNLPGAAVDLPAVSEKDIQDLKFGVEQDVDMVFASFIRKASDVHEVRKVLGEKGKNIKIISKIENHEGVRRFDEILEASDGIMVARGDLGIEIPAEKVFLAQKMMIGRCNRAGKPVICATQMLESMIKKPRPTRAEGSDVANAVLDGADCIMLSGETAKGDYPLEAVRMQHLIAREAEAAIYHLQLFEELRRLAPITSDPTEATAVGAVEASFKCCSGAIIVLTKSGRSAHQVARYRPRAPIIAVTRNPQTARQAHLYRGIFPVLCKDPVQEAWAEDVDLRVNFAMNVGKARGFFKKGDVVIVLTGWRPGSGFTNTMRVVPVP

The term stoichiometry N denotes the number of molecules, sites or subunits per partner or assembly. In the case of “recombinant human PKM2, wild type, P14618 1-531 (enzyme; other documents disagree on this pair)”, the stoichiometry N stood at 2.
